{"source": "paper PMC10199097", "about": "“Molecular mechanism of hyperactivation conferred by a truncation of TRPA1” (Nature Communications, 2023)", "binders": {"B1": {"name": "wild type (WT) human TRPA1 (Transient Receptor Potential Ankyrin subtype 1) (natural protein, UniProt O75762 1-1119, looked up)", "chain": "MKRSLRKMWRPGEKKEPQGVVYEDVPDDTEDFKESLKVVFEGSAYGLQNFNKQKKLKRCDDMDTFFLHYAAAEGQIELMEKITRDSSLEVLHEMDDYGNTPLHCAVEKNQIESVKFLLSRGANPNLRNFNMMAPLHIAVQGMNNEVMKVLLEHRTIDVNLEGENGNTAVIIACTTNNSEALQILLKKGAKPCKSNKWGCFPIHQAAFSGSKECMEIILRFGEEHGYSRQLHINFMNNGKATPLHLAVQNGDLEMIKMCLDNGAQIDPVEKGRCTAIHFAATQGATEIVKLMISSYSGSVDIVNTTDGCHETMLHRASLFDHHELADYLISVGADINKIDSEGRSPLILATASASWNIVNLLLSKGAQVDIKDNFGRNFLHLTVQQPYGLKNLRPEFMQMQQIKELVMDEDNDGCTPLHYACRQGGPGSVNNLLGFNVSIHSKSKDKKSPLHFAASYGRINTCQRLLQDISDTRLLNEGDLHGMTPLHLAAKNGHDKVVQLLLKKGALFLSDHNGWTALHHASMGGYTQTMKVILDTNLKCTDRLDEDGNTALHFAAREGHAKAVALLLSHNADIVLNKQQASFLHLALHNKRKEVVLTIIRSKRWDECLKIFSHNSPGNKCPITEMIEYLPECMKVLLDFCMLHSTEDKSCRDYYIEYNFKYLQCPLEFTKKTPTQDVIYEPLTALNAMVQNNRIELLNHPVCKEYLLMKWLAYGFRAHMMNLGSYCLGLIPMTILVVNIKPGMAFNSTGIINETSDHSEILDTTNSYLIKTCMILVFLSSIFGYCKEAGQIFQQKRNYFMDISNVLEWIIYTTGIIFVLPLFVEIPAHLQWQCGAIAVYFYWMNFLLYLQRFENCGIFIVMLEVILKTLLRSTVVFIFLLLAFGLSFYILLNLQDPFSSPLLSIIQTFSMMLGDINYRESFLEPYLRNELAHPVLSFAQLVSFTIFVPIVLMNLLIGLAVGDIAEVQKHASLKRIAMQVELHTSLEKKLPLWFLRKVDQKSTIVYPNKPRSGGMLFHIFCFLFCTGEIRQEIPNADKSLEMEILKQKYRLKDLTFLLEKQHELIKLIIQKMEIISETEDDDSHCSFQDRFKKEQMEQRNSRWNTVLRAVKAKTHHLEP", "notes": "human TRPA1, wild type, 1119 amino acids; Plasmid details are in the Supplementary Information; also called WT TRPA1; WT hTRPA1; source: HEK293T, transfected, in lysate (in intact cells for proximity biotinylation)"}}, "key": {"[1]": {"molecular_target": "the molecule itself", "experiment": "co-IP + SEC; GFP- and 3×FLAG-tagged subunits co-expressed in HEK293T cells; anti-FLAG immunoprecipitation, eluates analysed by fluorescence size exclusion chromatography (FSEC) of the GFP-tagged subunit; anti-FLAG blot of peak fractions"}, "[2]": {"molecular_target": "B1", "experiment": "pull-down; FLAG-MBP-WT and Strep-MBP-R919* hTRPA1 co-transfected; lysates tandem purified for Strep- then FLAG-tagged proteins; eluates probed with anti-MBP antibody, band intensities normalised to WT", "settings": "partners not purified"}}}
{"binder": "B1", "values": [{"measurement": "stoichiometry N", "setting": "[1]", "value": 4}]}
{"binder": "R919* human TRPA1 mutant (CRAMPT syndrome truncation) (domain or fragment, UniProt O75762 1-918, looked up, human TRPA1 with the patients' nonsense mutation at R919 (c.2755C>T); lacks the final 201 of 1119 amino acids (second pore helix, S6 and the whole cytoplasmic C-terminus); also called R919* TRPA1; R919* hTRPA1; source: HEK293T, transfected, in lysate (in intact cells for proximity biotinylation)) MKRSLRKMWRPGEKKEPQGVVYEDVPDDTEDFKESLKVVFEGSAYGLQNFNKQKKLKRCDDMDTFFLHYAAAEGQIELMEKITRDSSLEVLHEMDDYGNTPLHCAVEKNQIESVKFLLSRGANPNLRNFNMMAPLHIAVQGMNNEVMKVLLEHRTIDVNLEGENGNTAVIIACTTNNSEALQILLKKGAKPCKSNKWGCFPIHQAAFSGSKECMEIILRFGEEHGYSRQLHINFMNNGKATPLHLAVQNGDLEMIKMCLDNGAQIDPVEKGRCTAIHFAATQGATEIVKLMISSYSGSVDIVNTTDGCHETMLHRASLFDHHELADYLISVGADINKIDSEGRSPLILATASASWNIVNLLLSKGAQVDIKDNFGRNFLHLTVQQPYGLKNLRPEFMQMQQIKELVMDEDNDGCTPLHYACRQGGPGSVNNLLGFNVSIHSKSKDKKSPLHFAASYGRINTCQRLLQDISDTRLLNEGDLHGMTPLHLAAKNGHDKVVQLLLKKGALFLSDHNGWTALHHASMGGYTQTMKVILDTNLKCTDRLDEDGNTALHFAAREGHAKAVALLLSHNADIVLNKQQASFLHLALHNKRKEVVLTIIRSKRWDECLKIFSHNSPGNKCPITEMIEYLPECMKVLLDFCMLHSTEDKSCRDYYIEYNFKYLQCPLEFTKKTPTQDVIYEPLTALNAMVQNNRIELLNHPVCKEYLLMKWLAYGFRAHMMNLGSYCLGLIPMTILVVNIKPGMAFNSTGIINETSDHSEILDTTNSYLIKTCMILVFLSSIFGYCKEAGQIFQQKRNYFMDISNVLEWIIYTTGIIFVLPLFVEIPAHLQWQCGAIAVYFYWMNFLLYLQRFENCGIFIVMLEVILKTLLRSTVVFIFLLLAFGLSFYILLNLQDPFSSPLLSIIQTFSMMLGDINY", "values": [{"measurement": "stoichiometry N", "setting": "[2]", "value": "1.3 R919* subunits per WT subunit"}]}
